In patent US20190275084A1 (KYMAB, published 2019):
Blank lines part the entries; values can stand above or below the binder they belong to.

How the values were obtained:
[1] = target: T1, Recombinant Human OX40L (Leader sequence, Isoleucine Zipper and FLAG Sequence Included) (human); assay: SPR (ProteOn XPR36), apparent affinity, antibody captured on anti-mouse IgG, hOX40L at 256 nM, 1:1 model, 25 C
T1 construct: It was used biotinylated in the HTRF assays and unlabelled in SPR and in the IL-2 release assay; also called hOX40L; recombinant hOX40L
Method: (§1) SPR analysis was carried out using the ProteOn™ XPR36 Array System (BioRad). Anti-mouse IgG (GE Healthcare BR-1008-38) was immobilised on a GLM biosensor surface using amine coupling, the surface was then blocked using 1 M ethanolamine. Test antibodies were captured on this surface and recombinant hOX40L (human and rhesus) were used at a single concentration of 256 nM, binding sensorgrams were double referenced using a buffer injection (i.e. 0 nM) to remove baseline drift and injection artefacts. Apparent affinities for the OX40L-antibody interaction were determined using the 1:1 model inherent to the ProteOn XPR36 analysis software. The assay was run using HBS-EP (Teknova) as running buffer and carried out at 25° C.

[2] = target: T1, Recombinant Human OX40L (Leader …); assay: cell-based or functional assay
[3] = target: T2, Recombinant Rhesus OX40L (Leader Sequence, FLAG and Isoleucine zipper included) (Rhesus (Macaca mulatta)); assay: SPR (ProteOn XPR36), antibody captured, rhesus OX40L at 256 nM, 25 C; CNROR = cannot resolve off-rate
T2 construct: also called RhsOX40L; Rhesus monkey OX40L
Method: as §1

[4] = target: T1, Recombinant Human OX40L (Leader …); assay: HTRF receptor neutralisation: antibody titrated against biotinylated hOX40L and OX40RFc-AF647; mean +/- SEM of three experiments
[5] = target: T1, Recombinant Human OX40L (Leader …); assay: HTRF ligand/receptor neutralisation: antibody titrated against biotinylated hOX40L; the blocked ligand is OX40RFc-AF647; streptavidin cryptate detection
Method: Fully human purified IgG or other inhibitor were tested in order to establish the clone potency as measured by IC₅₀ values in the assay. Antibodies recombinantly expressed and purified were titrated by diluting in HTRF assay buffer and 5 μL of this titration transferred to a white 384 well low volume non-binding surface polystyrene plate (Greiner). Biotinylated OX40L was diluted in HTRF assay buffer to a working concentration of 2.4 nM and 5 μL added. […] Streptavidin cryptate (CISBIO) was diluted in HTRF assay buffer to working concentration of 1:100 and 5 μL added to all wells of the plate. Plates were covered, protected from light and incubated at room temperature for 3 hrs prior to reading time resolved fluorescence at 620 nm and 665 nm emission wavelengths using an EnVision plate reader (Perkin Elmer). Data were analysed by calculating delta F as described in Equation 4 and percentage of receptor for each sample according to Equation 5 or in some cases Equation 6. IC₅₀ values were determined using GraphPad Prism software by curve fitting using a four-parameter logistic equation (Equation 7) (FIG. 1).

T2 sequence (chain, as listed by the source limits assumed): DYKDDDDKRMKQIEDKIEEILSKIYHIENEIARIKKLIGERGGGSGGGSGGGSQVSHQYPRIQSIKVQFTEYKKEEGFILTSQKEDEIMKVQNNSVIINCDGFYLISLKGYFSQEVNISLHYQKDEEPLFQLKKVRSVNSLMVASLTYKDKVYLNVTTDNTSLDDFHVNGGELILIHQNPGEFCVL
T1 sequence (chain, as listed by the source limits assumed): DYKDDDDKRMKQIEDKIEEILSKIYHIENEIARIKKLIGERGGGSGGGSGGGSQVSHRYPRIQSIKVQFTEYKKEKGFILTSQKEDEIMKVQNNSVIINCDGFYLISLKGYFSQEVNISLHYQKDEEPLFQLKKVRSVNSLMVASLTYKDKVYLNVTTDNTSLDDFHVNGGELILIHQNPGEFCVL

B2: 2D10 (human) (antibody, human IgG4 S228P, kappa, V domains shown)
VH: EVQLVESGGGLVQPGGSLRLSCAASGFTFSNYAMNWVRQAPGKGLEWVSTISGSGGATRYADSVKGRFTISRDNSRNTVYLQMNSLRVEDTAVFYCTKDRLIMATVRGPYYYGMDVWGQGTTVTVSS
VL: DIQMTQSPSSLSASVGDRVTITCRASQSISSYLNWYQQKPGKAPNLLIYAASSLQSGVPSRFSGSGSETDFTLTISSLQPEDFATYYCQQSHSVSFTFGPGTKVDIKR
notes: Recombinant fully human IgG4-PE/kappa; also called 02D10 IgG4-PE; 2D10 IgG4PE
Primary T-cell Assay IC50 nM (recombinant OX40L induced IL2 release from primary human T-cells) [2]: 0.81 nM | binding result [3]: binds | IC50 [4]: 0.75 nM | IC50 (read off the curve) [5]: ~0.8 nM

B4: 19H01 (hybridoma) (antibody, V domains shown)
VH: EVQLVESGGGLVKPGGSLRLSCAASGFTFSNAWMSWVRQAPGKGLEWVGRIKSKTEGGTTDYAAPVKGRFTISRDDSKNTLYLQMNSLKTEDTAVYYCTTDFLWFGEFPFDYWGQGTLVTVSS
VL: DIQMTQSPSSLSASVGDRVTITCRASQGISNYLAWYQQKPGKIPKLLIYAASTLQSGVPSRFSGSGSGTDFTLTISSLQPEDVATYYCQKYNSAPRTFGQGTKVEIK
notes: Purified from hybridoma supernatant as a murine/human chimeric antibody (human variable domains, mouse constant regions)
Kd [1]: 2.2 nM

B5: 10A07 (human) (antibody, V domains shown)
VH: EVQLVESGGVLVQPGGSLRLSCAASGFTFSSYIMTWVRQAPGKGLEWVSGISGSGGGTYYADSMKGRFTISRDNSKNTLYLQMNSLRVEDTAVYYCAKDRLGPITLVRGGYYYGMDVWGQGTTVTVSS
VL: DIQMTQSPSSLSASVGDRVTITCRASQSISDYLNWYQQKPGKAPKFLIYAASSLQSGVPSRFSGSGSGTDFTLTVSSLQPEDFATYYCQQSYSTPRTFGQGTRVEIKR
notes: also called 10A07 IgG4PE; 10A7 IgG4-PE
Primary T-cell Assay IC50 nM (recombinant OX40L induced IL2 release from primary human T-cells) [2]: 0.83 nM | binding result [3]: binds | IC50 [4]: 1.2 nM | IC50 (read off the curve) [5]: ~1 nM

The remaining lines, values ahead:

Kd [1]: 5.3 nM
B1: 9H04 (hybridoma) (antibody, V domains shown)
VH: QVQLVESGGGLVKPGGSLRLSCAASRFTLSDYYMTWIRQAPGKGLEWVSYISSSGNTIYYADSVKGRFTISRDNAKNSLYLQMNSLRAEDTAVYYCARDLSGSYWDYYYGMDVWGQGTTVTVSS
VL: AIQLTQSPSSLSTSVGDRVTIACRASQGINNALAWYQQKPGKAPKLLIYDASSLESGVPSRFSGSGSGTDFTLTISSLQPEDFATYYCQQFNSYPRTFGQGTKVEIK
notes: Purified from hybridoma supernatant as a murine/human chimeric antibody (human variable domains, mouse constant regions); also called 09H04

binding result [3]: binds
B3: 2D10 (hybridoma) (antibody, V domains shown)
VH: B2 VH
VL: DIQMTQSPSSLSASVGDRVTITCRASQSISSYLNWYQQKPGKAPNLLIYAASSLQSGVPSRFSGSGSETDFTLTISSLQPEDFATYYCQQSHSVSFTFGPGTKVDIK
notes: Purified from hybridoma supernatant as a murine/human chimeric antibody (human variable domains, mouse constant regions); also called 02D10

binding result [3]: binds
B6: 10A07 (hybridoma) (antibody, V domains shown)
VH: B5 VH
VL: DIQMTQSPSSLSASVGDRVTITCRASQSISDYLNWYQQKPGKAPKFLIYAASSLQSGVPSRFSGSGSGTDFTLTVSSLQPEDFATYYCQQSYSTPRTFGQGTRVEIK
notes: Purified from hybridoma supernatant as a murine/human chimeric antibody (human variable domains, mouse constant regions); also called 10A7
